Laboratory results from publication PMC6100598, “Characterization of Small Molecules Inhibiting the Pro-Angiogenic Activity of the Zinc Finger Transcription Factor Vezf1” (Molecules : A Journal of Synthetic Chemistry and Natural …, 2018).
Where “and” joins values, the source holds several entries; their conditions need not be identical. Equal values may be shown once.

How the values were obtained:
[1] = biological target: T1, Vezf1 (recombinant His-Vezf1) (Mus musculus, UniProt Q5SXC4); experiment: EMSA, single dose; conditions: 640 nM Vezf1, 25 nM 32P-DNA, 10 min pre-incubation; residual DNA binding, not per cent inhibition; value without compound not given
T1 construct: N-terminal His6 tag (pQE10), kept; E. coli XLBlue (MRF, T7); Ni-NTA; residue borders not given; native protein about 65 kDa, six C2H2 zinc fingers
T1 sequence (Q5SXC4 1-518): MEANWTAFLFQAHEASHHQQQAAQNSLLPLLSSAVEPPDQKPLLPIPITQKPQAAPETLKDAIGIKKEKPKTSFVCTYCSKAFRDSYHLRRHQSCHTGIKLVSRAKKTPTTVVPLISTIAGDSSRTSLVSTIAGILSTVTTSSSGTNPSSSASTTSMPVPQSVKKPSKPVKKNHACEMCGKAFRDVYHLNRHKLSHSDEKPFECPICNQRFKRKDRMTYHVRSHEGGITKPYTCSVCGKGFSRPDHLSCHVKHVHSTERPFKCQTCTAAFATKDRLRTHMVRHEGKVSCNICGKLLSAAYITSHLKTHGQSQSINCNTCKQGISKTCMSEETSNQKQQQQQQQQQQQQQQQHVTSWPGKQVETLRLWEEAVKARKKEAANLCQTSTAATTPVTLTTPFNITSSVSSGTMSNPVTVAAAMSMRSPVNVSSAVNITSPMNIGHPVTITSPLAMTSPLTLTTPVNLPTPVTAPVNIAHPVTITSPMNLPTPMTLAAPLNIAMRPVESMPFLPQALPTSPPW

[2] = biological target: T1, Vezf1 (recombinant His-Vezf1); experiment: EMSA, inhibition of Vezf1 binding to […]-labelled DNA; conditions: 1 μM or 640 nM (Figure 5C) Vezf1, 25 nM 32P-DNA (HS4-FPIII site), 10 min pre-incubation, 10 mM MgCl2, Hepes 7.5, room temperature; also called effective blocking concentration
Vezf1 (His-Vezf1) = biological target: T2, Vezf1 (His-Vezf1) (UniProt Q5SXC4); experiment: EMSA; conditions: 20 mM Hepes pH 7.5, 10 mM MgCl2, 50 mM NaCl, 1 mM EDTA, 5 ng/uL poly dA.dT, 10 min at room temperature, 5% acrylamide gel in 0.5x TBE
T2 sequence: T1 sequence (Q5SXC4 1-518)

Molecule: Cc1c(S(=O)(=O)O)ccc(N=Nc2c(O)c(C(=O)O)cc3ccccc23)c1Cl [compound 2, NSC16087]
- % DNA Bound in EMSA (500 μM) [1]: 22.56%

Molecule: NC(=O)c1nnn(Cc2cc(Cl)c(C(=O)c3ccc(Cl)cc3)c(Cl)c2)c1N [compound 3, NSC609974]
- % DNA Bound in EMSA (500 μM) [1]: 38.45%

Molecule: O=C(O)c1ccccc1NC(c1ccccc1)c1ccc2cccnc2c1O (centres unmarked) [compound 1, NSC1012]
- Activity Concentration [2]: ~ 500 μM

Molecule: AGGCGCGCCCCGGTCCGGCGCTCCCCCCGCATCCCCGAGCCGGGGCGCGCCT (double strand) [HS4-FPIII Vezf1 site duplex]
- binding signal (Vezf1 (His-Vezf1); 500 uM NSC1012, 640 nM Vezf1): 7.38 % DNA bound
- binding signal (Vezf1 (His-Vezf1); 500 uM T4 (503-1-83), 640 nM Vezf1, T4 effective at 20 uM (IC50)): 5.94 % DNA bound
- binding signal (Vezf1 (His-Vezf1); 500 uM T6 (503-1-71 in text; 501-1-71 in Fig 5B legend), 640 nM Vezf1): 5.92 % DNA bound
- binding signal (Vezf1 (His-Vezf1)): 22.6 % DNA bound and 38.5 % DNA bound
- Kd (Vezf1 (His-Vezf1); no inhibitor, 25 nM DNA, 50-1000 nM protein): 640 nM
